One molecule from patent publication US20090269356, “Complement Binding Aptamers and Anti-C5 Agents Useful in the Treatment of Ocular Disorders” (published 2009) can be followed below.

Series [1] deals with complement C5 in human serum/blood (Homo sapiens, UniProt P01031). As to the kind of experiment: inhibition; hemolysis, 0.2% human serum, 25 C. As to conditions: protein: extract. How it is done: Hemolysis Assay: The effect of ARC913 (SEQ ID NO: 75) on the classical pathway of the complement system was analyzed using a hemolysis assay previously described, compared to both ARC186 (SEQ ID NO: 4) (Anti-C5 aptamer, positive control) and unselected dRmY pool (negative control). In the assay of hemolytic inhibition, a solution of 0.2% whole human serum was mixed with antibody-coated sheep erythrocytes (Diamedix EZ Complement CH50 Test, Diamedix Corporation, Miami, Fla.) in the presence of titrated ARC913 (SEQ ID NO: 75). The assay was run in veronal-buffered saline containing calcium, magnesium and 1% gelatin (GVB⁺⁺ complement buffer) and incubated for 1 hr at 25° C. After incubation the samples were centrifuged. The optical density at 415 nm (OD₄₁₅) of the supernatant was read. The inhibition of hemolysis activity is expressed as % hemolysis activity compared to control. The IC₅₀ of the aptamer was calculated to be about 30 nM.
complement C5 in human serum/blood, sequence (P01031 whole entry): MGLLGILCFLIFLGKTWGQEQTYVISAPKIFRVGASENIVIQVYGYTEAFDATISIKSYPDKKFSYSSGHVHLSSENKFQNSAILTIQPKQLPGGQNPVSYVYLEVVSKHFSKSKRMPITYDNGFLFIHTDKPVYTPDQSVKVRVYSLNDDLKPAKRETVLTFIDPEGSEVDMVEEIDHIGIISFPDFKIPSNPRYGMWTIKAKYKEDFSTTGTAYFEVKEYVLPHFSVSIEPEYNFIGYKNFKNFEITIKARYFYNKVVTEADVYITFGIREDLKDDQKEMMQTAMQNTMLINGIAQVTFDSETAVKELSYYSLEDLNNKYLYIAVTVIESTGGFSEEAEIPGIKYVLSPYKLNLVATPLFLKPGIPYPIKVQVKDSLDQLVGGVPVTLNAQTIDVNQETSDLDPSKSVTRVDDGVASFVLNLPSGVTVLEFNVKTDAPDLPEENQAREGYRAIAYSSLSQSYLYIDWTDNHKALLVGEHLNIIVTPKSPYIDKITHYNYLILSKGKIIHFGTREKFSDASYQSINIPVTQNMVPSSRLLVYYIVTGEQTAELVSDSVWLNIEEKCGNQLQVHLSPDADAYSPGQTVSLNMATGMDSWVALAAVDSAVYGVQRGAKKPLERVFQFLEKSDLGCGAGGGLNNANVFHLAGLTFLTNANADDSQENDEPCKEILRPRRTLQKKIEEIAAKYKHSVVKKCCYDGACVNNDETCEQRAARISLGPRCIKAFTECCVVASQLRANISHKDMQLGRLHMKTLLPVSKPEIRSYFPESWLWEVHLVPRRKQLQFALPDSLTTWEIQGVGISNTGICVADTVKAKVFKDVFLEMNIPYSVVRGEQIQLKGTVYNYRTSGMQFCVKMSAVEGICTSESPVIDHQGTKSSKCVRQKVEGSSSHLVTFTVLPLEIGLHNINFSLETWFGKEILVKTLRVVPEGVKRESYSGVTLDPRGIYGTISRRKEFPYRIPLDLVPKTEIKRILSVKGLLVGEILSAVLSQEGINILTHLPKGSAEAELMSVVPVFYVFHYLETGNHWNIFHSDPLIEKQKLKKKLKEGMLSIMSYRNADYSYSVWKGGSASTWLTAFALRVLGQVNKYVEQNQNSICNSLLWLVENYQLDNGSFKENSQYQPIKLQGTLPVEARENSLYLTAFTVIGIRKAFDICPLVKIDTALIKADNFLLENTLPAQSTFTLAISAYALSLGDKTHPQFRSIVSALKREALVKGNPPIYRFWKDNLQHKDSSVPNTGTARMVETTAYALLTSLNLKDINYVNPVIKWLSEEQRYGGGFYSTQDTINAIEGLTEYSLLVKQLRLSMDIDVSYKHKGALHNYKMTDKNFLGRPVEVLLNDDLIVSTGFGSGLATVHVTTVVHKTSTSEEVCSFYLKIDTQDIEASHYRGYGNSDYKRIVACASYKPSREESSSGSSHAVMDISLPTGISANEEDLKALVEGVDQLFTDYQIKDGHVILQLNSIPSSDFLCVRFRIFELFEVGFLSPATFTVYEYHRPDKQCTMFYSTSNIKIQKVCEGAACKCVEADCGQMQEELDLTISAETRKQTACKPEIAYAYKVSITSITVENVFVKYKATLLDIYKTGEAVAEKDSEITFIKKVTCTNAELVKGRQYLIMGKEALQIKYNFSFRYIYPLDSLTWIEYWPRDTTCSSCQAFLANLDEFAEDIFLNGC

Series [2] deals with complement C5 (full length) (Homo sapiens, UniProt P01031). As to the kind of experiment: filter; dot blot; 20% plateau. To be noted: tags: Quidel / Complement Technologies A120.14 / Advanced Research Technologies. Here is the method:
The selection progress was monitored using a sandwich filter binding (dot blot) assay. The 5′-³²P-labeled pool RNA (trace concentration) was incubated with C5, 1×DPBS plus 0.1 mg/mL tRNA and 0.1 mg/mL salmon sperm DNA, for 30 minutes at room temperature, and then applied to a nitrocellulose and nylon filter sandwich in a dot blot apparatus (Schleicher and Schuell). The percentage of pool RNA bound to the nitrocellulose was calculated and monitored approximately every 3 rounds with a single point screen (+/−300 nM C5). Pool Kd measurements were measured using a titration of protein and the dot blot apparatus as described above.
Sequence Information: 45 clones from each pool were sequenced. R10 full length pool was dominated by one single clone ARC913 (SEQ ID NO: 75) which made up 24% of the pool, 2 sets of duplicates and single sequences made up the remainder. The R10 trypsinized pool contained 8 copies of the same sequence ARC913 (SEQ ID NO: 75), but the pool was dominated by another sequence (AMX221.A7; 46%).

complement C5 (full length), sequence (P01031 whole entry): as above

B1: ARC913 (mixed)
RNA: GGGAGAGGAGAGAACGUUCUACCUUGGUUUGGCACAGGCAUACAUACGCAGGGGUCGAUCGAUCGAUCAUCGAUG
modifications: dRmY: A,G deoxy; C,U 2'-OMe
In the case of B1, the IC50 in series [1] is roughly 30 nM. In series [2], this molecule yielded a dissociation constant Kd of roughly 140 nM.
